Test results published in paper PMC3614804.

Assays:
FcεRIα (Homo sapiens) = FcεRIα (Homo sapiens) (UniProt P12319); experiment: given as Ka; conditions: cited from earlier work
[1] = target: extracellular part of FcɛRIα with the transmembrane domain of Her2 at its C-terminus, displayed on the stable CHO cell line FI5F10 (UniProt P12319); experiment: flow cytometry on cells; 7.5 nM IgE alone (positive control), or preincubated with 750 nM QME5 or with equimolar Omalizumab, added to FI5F10 cells; after washing 5 μg/mL FITC_GAH IgE detects membrane-binding IgE

percentage of positive cells (7.5 nM IgE, positive control) [1] [%] | Substance | Kd (FcεRIα (Homo sapiens)) [nM]
 | IgE Cε3 Cε3 (from UniProt P01854) | 200
69.1 | human IgE (ligand) | 
